From PMC8316464, “Structures of the ApoL1 and ApoL2 N-terminal domains reveal a non-classical four-helix bundle motif” (Communications Biology, 2021) come the findings set out here.

Assay [1] has as its target T1, human untagged ApoL2 expressed in COS7 cells (Homo sapiens, UniProt Q9BQE5).
T1 construct: Apolipoprotein L2, human, untagged; source: COS7, transiently transfected; in lysate (immunoprecipitation) or in fixed, permeabilized cells (immunofluorescence)
Briefly: immunoprecipitation; 20 µg antibody pre-immobilised on Dynabeads Protein G, incubated 20 min at RT with M-PER lysates of cells expressing ApoL1-6 (35 µg total protein for ApoL1-3, 500 µg for ApoL4-6); four washes PBS/0.02% Tween-20; blot with anti-ApoL1/2 or anti-Myc. As to conditions: one partner purified.

A further assay concerns the target T2, ApoL3-Myc-Flag (Homo sapiens, UniProt O95236).
T2 construct: Apolipoprotein L3, human; The homology model (not this construct) used isoform 1, NP_663615.1; source: COS7, transiently transfected; in lysate (immunoprecipitation) or in fixed, permeabilized cells (immunofluorescence); not shown: Myc, C-terminal, kept; FLAG, C-terminal, kept
Described as above. As to conditions: one partner purified.

In the next assay the target is T3, ApoL4-Myc (Homo sapiens, UniProt Q9BPW4).
T3 construct: Apolipoprotein L4, human; The homology model (not this construct) used isoform 2, NP_663693; source: COS7, transiently transfected; in lysate (immunoprecipitation) or in fixed, permeabilized cells (immunofluorescence); not shown: Myc, C-terminal, kept
The assay can be described thus: immunostaining of cells or tissue; transiently transfected COS7 cells fixed (3% paraformaldehyde) and permeabilized (0.1% Triton-X-100); mouse anti-ApoL1 antibodies at 2 µg/ml in PBS, 1 h, room temperature; Alexa488-anti-mouse; co-stained with anti-myc. As to conditions: one partner purified.

In assay [2] the target is T4, full-length ApoL1 with N-terminal flag-tag (human, UniProt O14791-1).
T4 construct: also called Apolipoprotein L1; not shown: FLAG, N-terminal, kept
The assay can be described thus: SPR; Biacore T200; anti-ApoL1 antibodies captured (~250 RU) by anti-murine Fc antibody on a CM5 chip; ApoL1 0.8–500 nM injected in HBS-P (10 mM HEPES pH 7.4, 150 mM NaCl, 0.005% P20) at 37 °C, 100 µl/min; 1:1 Langmuir model; KD = koff/kon. The conditions noted are these: both partners purified. For orientation: Surface plasmon resonance follows binding to a sensor surface in real time, without labels.

Assay [3] has as its target T5, ApoL2-NTD (N2-T113), His tag removed (human, UniProt Q9BQE5).
T5 construct: Apolipoprotein L2, human, N-terminal domain residues N2-T113, Genbank NP_112092.2; source: Sf9 insect cells (baculovirus), purified (Ni resin, S75, TEV digestion, S75)
The assay can be described thus: crystal structure; Fab complexes formed with 1.5 molar excess of NTD and purified on Superdex-200 in 0.15 M NaCl, 25 mM Tris pH 8.0, about 10 mg/ml; Fab7D6 also crystallised with the synthetic peptide E152–H169. As to conditions: both partners purified.

For assay [4], the target named is T6, flag-tagged ApoL1-NTD (D61–T172) (human, UniProt O14791).
T6 construct: Apolipoprotein L1, human, N-terminal domain residues D61-T172; E150 variant; the tag is said to be removed only for X-ray studies; source: Sf9 insect cells (baculovirus), purified (anti-flag resin, S75 size exclusion)
Briefly: SEC-MALS; XBridge BEH 200 Å column in PBS, 0.02% sodium azide, 1 ml/min; complex formed with a twofold molar excess of ApoL1-NTD (46.8 µM) over Fab7D6, 30 min at room temperature; components also run alone. The conditions noted are these: both partners purified. (Size exclusion chromatography separates by hydrodynamic size, large species first.)

The target in assay [5] is T7, ApoL1-peptide (BH3-like peptide E152–H169) (human, UniProt O14791).
T7 construct: Apolipoprotein L1, human, residues E152-H169; also called ApoL1-BH3 peptide; BH3 peptide; source: synthetic peptide (NEO Scientific)
T7 chain: EDNIRRLRALADGVQKVH
Briefly: crystal structure; Fab complexes formed with 1.5 molar excess of NTD and purified on Superdex-200 in 0.15 M NaCl, 25 mM Tris pH 8.0, about 10 mg/ml; Fab7D6 also crystallised with the synthetic peptide E152–H169. As to conditions: both partners purified.

The target of the next assay is T8, Bfl-1 (human, UniProt Q16548 1-175).
T8 construct: Bfl-1 (Bcl-2-related protein A1), human recombinant; also called Bcl-2-related protein A1; source: bought: R&D Systems
T8 sequence (looked up): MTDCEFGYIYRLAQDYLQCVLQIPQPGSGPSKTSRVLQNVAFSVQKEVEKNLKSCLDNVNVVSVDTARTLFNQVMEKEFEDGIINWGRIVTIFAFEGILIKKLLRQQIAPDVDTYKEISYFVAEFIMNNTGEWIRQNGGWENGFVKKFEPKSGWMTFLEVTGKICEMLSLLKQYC
The assay can be described thus: SPR; Biacore S200; Bcl-2 family proteins immobilised on CM5 (amine coupling or His-Capture Kit); peptides and flag-tagged proteins as analytes, single-cycle kinetics, HBS-EP, 25 °C; 1:1 Langmuir model; absence of binding probed at 100 nM and 3 µM. As to conditions: both partners purified.

The target of the next assay is T9, Bcl-w (human, UniProt Q92843 1-193).
T9 construct: Bcl-w, human recombinant; source: bought: R&D Systems
T9 sequence (looked up): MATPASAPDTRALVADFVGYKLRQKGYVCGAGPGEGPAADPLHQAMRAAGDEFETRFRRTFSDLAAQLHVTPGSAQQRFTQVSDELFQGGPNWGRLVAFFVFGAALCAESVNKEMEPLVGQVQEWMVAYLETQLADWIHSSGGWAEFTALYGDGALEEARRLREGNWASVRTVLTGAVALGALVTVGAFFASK
Described as above. The conditions noted are these: both partners purified.

T4 sequence (O14791 28-398): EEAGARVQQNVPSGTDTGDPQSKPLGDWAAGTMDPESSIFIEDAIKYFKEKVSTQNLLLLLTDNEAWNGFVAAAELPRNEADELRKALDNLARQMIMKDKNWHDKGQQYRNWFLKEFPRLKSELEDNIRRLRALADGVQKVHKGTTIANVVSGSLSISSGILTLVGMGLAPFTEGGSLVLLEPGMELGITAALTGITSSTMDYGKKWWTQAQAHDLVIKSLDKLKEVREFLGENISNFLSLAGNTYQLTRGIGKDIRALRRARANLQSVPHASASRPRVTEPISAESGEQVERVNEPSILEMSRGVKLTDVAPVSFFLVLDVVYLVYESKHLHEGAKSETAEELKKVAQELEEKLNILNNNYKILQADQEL
T1 sequence (Q9BQE5 whole entry): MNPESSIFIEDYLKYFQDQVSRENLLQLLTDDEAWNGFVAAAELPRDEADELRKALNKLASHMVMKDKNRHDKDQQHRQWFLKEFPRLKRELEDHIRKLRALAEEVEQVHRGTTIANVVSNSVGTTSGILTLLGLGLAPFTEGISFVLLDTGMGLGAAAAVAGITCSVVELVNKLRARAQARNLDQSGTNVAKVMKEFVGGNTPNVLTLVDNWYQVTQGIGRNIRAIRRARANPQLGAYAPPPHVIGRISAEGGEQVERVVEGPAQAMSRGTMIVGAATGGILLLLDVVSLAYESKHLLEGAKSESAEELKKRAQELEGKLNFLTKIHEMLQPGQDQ
T2 sequence (O95236 whole entry, canonical isoform): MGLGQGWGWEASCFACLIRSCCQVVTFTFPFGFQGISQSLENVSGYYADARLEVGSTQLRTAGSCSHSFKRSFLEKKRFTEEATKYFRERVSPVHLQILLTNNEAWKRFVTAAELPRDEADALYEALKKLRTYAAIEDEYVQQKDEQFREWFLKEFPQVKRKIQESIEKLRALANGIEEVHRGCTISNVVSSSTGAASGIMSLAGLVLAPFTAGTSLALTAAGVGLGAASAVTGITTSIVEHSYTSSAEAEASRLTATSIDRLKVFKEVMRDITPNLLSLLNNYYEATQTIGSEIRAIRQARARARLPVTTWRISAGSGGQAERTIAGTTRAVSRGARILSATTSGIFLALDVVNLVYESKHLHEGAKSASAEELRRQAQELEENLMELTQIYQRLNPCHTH
T6 sequence (O14791 61-172): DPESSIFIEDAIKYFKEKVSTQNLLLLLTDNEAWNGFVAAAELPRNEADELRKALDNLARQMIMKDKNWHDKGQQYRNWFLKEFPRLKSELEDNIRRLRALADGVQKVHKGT
T5 sequence (Q9BQE5 other isoform, or with tags, fused parts or gaps): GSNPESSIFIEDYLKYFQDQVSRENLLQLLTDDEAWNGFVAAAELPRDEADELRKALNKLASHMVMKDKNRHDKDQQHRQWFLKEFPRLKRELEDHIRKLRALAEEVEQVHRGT
T3 sequence (Q9BPW4 22-351): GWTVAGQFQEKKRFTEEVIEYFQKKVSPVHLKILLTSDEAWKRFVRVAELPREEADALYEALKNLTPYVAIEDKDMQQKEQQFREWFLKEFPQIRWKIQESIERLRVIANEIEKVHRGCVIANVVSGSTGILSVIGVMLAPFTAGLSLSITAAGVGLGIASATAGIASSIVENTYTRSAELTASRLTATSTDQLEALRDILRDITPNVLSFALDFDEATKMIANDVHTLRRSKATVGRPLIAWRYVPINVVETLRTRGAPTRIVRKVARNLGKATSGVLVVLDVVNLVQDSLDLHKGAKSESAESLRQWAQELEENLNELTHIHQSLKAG

B1: Ab6D12 (antibody, V domains shown)
VH: EVMLVESGGGLVRPGGSLKLSCTASGFTFSRCAMSWVRQTPEKRLEWVSAISRDSTYTYYSDSVKGRFTVSRDNAKNTLYLQMSSLRSEDTAMYYCARQIDDYYVDALDYWGQGTSVTVSS
VL: DVQITQSPSYLAASPGETITINCRASKIISKYLAWYQEKPGKTIKLLIYSGFTLQSGIPSRFSGSGSGTDFTLTISSLEPEDFAMYYCQQHNEYPLTFGAGTKLEIK
notes: mouse VH, as the variable part of the heavy chain of m1; mouse heavy chain constant region; mouse VL, as the variable part of the light chain of m1; mouse light chain constant region; Mouse anti-human ApoL1 antibody; also called 3.6D12; murine Ab6D12
In general, Kd refers to the free concentration of one partner at which half of the binding sites on the other are occupied at equilibrium, for simple one-to-one binding. Lower therefore signals higher affinity. B1: the binding result (in [1]; with ApoL3-Myc-Flag; with ApoL4-Myc) was “binds” each time. This molecule came in with a dissociation constant (Kd) in assay [2] of 0.86 nM.

B2: Fab6D12 (Fab, V domains shown)
VH: EVMLVESGGGLVRPGGSLKLSCTASGFTFSRCAMSWVRQTPEKRLEWVSAISRDSTYTYYSDSVKGRFTVSRDNAKNTLYLQMSSLRSEDTAMYYCARQIDDYYVDALDYWGQGTSVTVSS
VL: DVQITQSPSYLAASPGETITINCRASKIISKYLAWYQEKPGKTIKLLIYSGFTLQSGIPSRFSGSGSGTDFTLTISSLEPEDFAMYYCQQHNEYPLTFGAGTKLEIK
notes: Chimeric Fab: mouse variable domains on human constant domains; also called Fab of Ab6D12; 3.6D12 Fab; source: E. coli strain 64B4, secreted into the periplasm, purified (protein G, SP Sepharose, Superdex 75)
For the molecule B2, in [3], the binding result is “binds”.

B3: Ab3B6 (antibody, V domains shown)
VH: QVQLQQSGAELARPGASVKLSCKASGYTFTSHWMQWLKQRPGQGLEWIGAIYPGDGDTKFTQKFKDKATLTADKSSTTAYMQLSSLASEDSAVYYCARENLYGYYFDYWGQGTTLTVSS
VL: QAVVTQESALTTSPGETVTLTCRSSTGAVTSGNFANWVQEKPDHLFTGLIGGADNRAPGVPARFSGSLIGDKAALIITGAQTEDEAIYFCALWYSDHWVFGGGTKLTVL
notes: mouse VH, as the variable part of the heavy chain of m2; mouse heavy chain constant region; mouse VL, as the variable part of the light chain of m2; mouse light chain constant region; Mouse anti-human ApoL1 antibody; also called 3.3B6
Turning to B3, the binding result (in [1]; in the assay with ApoL3-Myc-Flag) was “binds” in each case. In assay [2], this molecule returned a Kd of 1.56 nM.

B4: Fab7D6 (Fab, V domains shown)
VH: QIQLVQSGPDLKKPGETVKISCRTSGYAFTNYGVNWVKQAPGKGLKWMGWINTNTGQTTYAEEFRGRFAISLETSASTAFLTISNLKNEDSATYFCARLIYDGDYISSDFWGQGTTLTVSS
VL: DIQMTQSPDSLSASVGETVTITCGASENIYGALNWYQRKQGKSPQLLIYGATNLADGMSSRFSGSRSGRQYSLKISSLHPDDVATYYCQNALSMPYTFGGGTNLETK
notes: Chimeric Fab: mouse variable domains on human constant domains; also called Fab of Ab7D6; 3.7D6 Fab; source: E. coli strain 64B4, secreted into the periplasm, purified (protein G, SP Sepharose, Superdex 75)
The term stoichiometry N denotes a count of units in the complex or per binding partner. As to B4, the “stoichiometry N” value in assay [4] came to 1. Also, the binding result in assay [5] is listed as “binds”.

B5: Ab7D6 (antibody, V domains shown)
VH: QIQLVQSGPDLKKPGETVKISCRTSGYAFTNYGVNWVKQAPGKGLKWMGWINTNTGQTTYAEEFRGRFAISLETSASTAFLTISNLKNEDSATYFCARLIYDGDYISSDFWGQGTTLTVSS
VL: DIQMTQSPDSLSASVGETVTITCGASENIYGALNWYQRKQGKSPQLLIYGATNLADGMSSRFSGSRSGRQYSLKISSLHPDDVATYYCQNALSMPYTFGGGTNLETK
notes: mouse VH, as the variable part of the heavy chain of m3; mouse heavy chain constant region; mouse VL, as the variable part of the light chain of m3; mouse light chain constant region; Mouse anti-human ApoL1 antibody; also called 3.7D6
As for B5, binding in assay [2] was put at a Kd of 1.63 nM.

B6: Bim (A149I) peptide (peptide)
peptide: DMRPEIWIIQELRRIGDEFNAYYAR
notes: also called Bim (A149A) (as printed in the methods); source: synthetic peptide (ABclonal, >95% purity)
For the molecule B6, the Kd turned out to be 18.8 nM with Bfl-1 and 23.1 nM in the assay with Bcl-w.

B7: Bid BH3 peptide (25-mer, residues 77-101) (peptide)
peptide: ESQEDIIRNIARHLAQVGDSMDRSI
notes: Bid, BH3-only motif, residues 77-101; source: synthetic peptide (ABclonal, >95% purity)
Regarding B7, the figures for the dissociation constant (Kd) in the assay with Bfl-1 and with Bcl-w were 0.31 nM and 24.2 nM, respectively.

B8: Bid (A87I) peptide (peptide)
peptide: ESQEDIIRNIIRHLAQVGDSMDRSI
notes: source: synthetic peptide (ABclonal, >95% purity)
Turning to B8, the values for the Kd with Bfl-1 and with Bcl-w were 1430 nM and 65.2 nM, respectively.
